{
  "source": "patent US10428347B2",
  "about": "“Herbicide-detoxifying enzymes and uses thereof” (priority 2017, dated 2019)",
  "molecules": {"B1": {"name": "HPAM: hydroxyphenylacetate monooxygenase from Bacillus cereus BGSC 6E1, amino acid SEQ ID NO: 30 (protein, listed as Bacillus cereus)", "chain": "MAIRTGEQYIEGLRKRNPEIWIGGRKVTDVVNEDVFREPIIQIANLYDMQHNPEYQDKITHICEETGERVSNAFLVPRNYEDLKVRRELFEVWAKATYGLMGRTPDFLNVTVTSMASNSWFFEKFNPEWGANIKNYYKHIRDNDLFLTHAIINPQNDRSKASHQQEDETMHLGVVSETAEGMYVSGAKMLATLAPITDEVIIYSYPSFKPGDERHAISFAVPIDAPGLRILCREPMQDGKRSLFDHPLASRFEEMDALLVFHNVFIPWDKVFIYQSVEAGNQLYPKTGIGHQPAHQSGVRGLVKLSFAAEVAMKLADSIGVDGFLNVQNQLAELMQDVETIRALLQVAEYEYETNSYGEVIPARLPLDTIRSLLPKMYPRAIEIIQTIGAGGLLMSPTGADFMNPEIHDDMQKYYIGREGVSSEERVRLFKLAWDLCGEAFGQRLLQYERYYSGDPVRKMGMFYNAYKKQQTFSLVNNALQSSSSEGALS"}, "B2": {"name": "SM1: salicylate monooxygenase from Bacillus cereus strain B377, amino acid SEQ ID NO: 251 (nucleotide SEQ ID NO: 243) (protein, listed as Bacillus cereus)", "chain": "MGKEKKYDAIVVGAGPVGLVAGLALQKKGISTLVIEADSFGRPRPGSRAIYLHSASLKLLEETSEGLGFTLAHNGIIWPVKRTFYKGKEVYVRDYGKDENLKFNRLPHFTALHQDEIEKHMYEACIKEGVEFLWDAPVKKLHITDSGVELTITNDEILKAQYVIGCDGARSIVREEAGLTFEGPRTADTFIVVDAKEDETDPLPLERIFHYQHPAMEGRNVMFVPFKGGWRIDLQLLESDNPDDYTNIESVKTWLPKVMDAKYAERITWVSSYRFHQVVANSFTDEKRRVLLAGEAAHLFAPFGARGLNSGIPDAVLAARGIEKALHSHSEEERVEAIEAAAKERRIAAQWNRDASTTALHHLQGSSPEMNMKRDIAASLVSIVPRLGRWLDEGPYGPKFGPPELTTKY"}, "B3": {"name": "GutB sorbitol dehydrogenase: sorbitol dehydrogenase from Bacillus subtilis strain 168, SEQ ID NO: 288, cofactor-regenerating enzyme (protein, listed as Bacillus subtilis)", "chain": "MTHTVPQNMKAAVMHNTREIKIETLPVPDINHDEVLIKVMAVGICGSDLHYYTNGRIGNYVVEKPFILGHECAGEIAAVGSSVDQFKVGDRVAVEPGVTCGRCEACKEGRYNLCPDVQFLATPPVDGAFVQYIKMRQDFVFLIPDSLSYEEAALIEPFSVGIHAAARTKLQPGSTIAIMGMGPVGLMAVAAAKAFGAGTIIVTDLEPLRLEAAKKMGATHIINIREQDALEEIKTITNDRGVDVAWETAGNPAALQSALASVRRGGKLAIVGLPSQNEIPLNVPFIADNEIDIYGIFRYANTYPKGIEFLASGIVDTKHLVTDQYSLEQTQDAMERALQFKNECLKVMVYPNR"}, "B4": {"name": "SDH control: commercially available sorbitol dehydrogenase enzyme produced from sheep liver (S-3764, Sigma-Aldrich) (protein, UniProt P07846 1-354, looked up)", "Sorbitol dehydrogenase": "AKPAAENLSLVVHGPGDLRLENYPIPEPGPNEVLLKMHSVGICGSDVHYWQGRIGDFVVKKPMVLGHEASGTVVKVGSLVRHLQPGDRVAIQPGAPRQTDEFCKIGRYNLSPTIFFCATPPDDGNLCRFYKHNANFCYKLPDNVTFEEGALIEPLSVGIHACRRAGVTLGNKVLVCGAGPIGLVNLLAAKAMGAAQVVVTDLSASRLSKAKEVGADFILEISNESPEEIAKKVEGLLGSKPEVTIECTGVETSIQAGIYATHSGGTLVLVGLGSEMTSVPLVHAATREVDIKGVFRYCNTWPMAISMLASKSVNVKPLVTHRFPLEKALEAFETSKKGLGLKVMIKCDPSDQNP"}},
  "key": {"[1]": {"test": "Absorbance spectra assay of MCPA-4 amine degradation by ChD or CAC", "assay_type": "biochemical", "settings": "MCPA-4 amine 200 mg/L alone (no enzyme), 50 mM HEPES pH 7, one hour at 37° C.", "procedure": "(§1) Small scale (1 mL) assays were performed to evaluate the ability of ChD and CAC to degrade MCPA-4 amine or mecoprop.\n(§2) MCPA-4 amine and mecoprop have absorbance maxima (Amax) at approximately 230 and 280 nm. […] MCPA-4 amine or mecoprop end product generation is directly proportional to the degradation MCPA-4 amine or mecoprop, respectively."}, "[2]": {"test": "Absorbance spectra assay of mecoprop degradation by ChD or CAC", "assay_type": "biochemical", "settings": "mecoprop 200 mg/L alone (no enzyme), 50 mM HEPES pH 7, one hour at 37° C.", "procedure": "as §1, §2"}, "lentil plants": {"system": "lentil plants", "test": "Lentil seeds coated with immobilized enzyme, grown in dicamba-containing soil", "assay_type": "in vivo", "procedure": "For each treatment group, eighteen lentil seeds were coated with immobilized salicylate monooxygenase (SM, SEQ ID NO: 21) or hydroxyphenylacetate monooxygenase (HPAM, SEQ ID NO: 30), or with a water-only control (H2O) or a control containing only the particles used for immobilization, without any enzyme (“Particle Alone”). […] 50 ml of water was selected as this is the saturation point of this soil at this scale. Herbicides were allowed to sit in the soil for 24 hours before planting of coated seeds. Germination rate was measured at one week and root and shoot lengths were measured after two weeks.\nFurther data illustrating the protective effects of salicylate monooxygenase (SM) and hydroxyphenylacetate monooxygenase (HPAM) on lentil plants grown in dicamba-containing soil are provided in FIGS. 6-9. Lentil seeds were treated as described above with water alone, particle alone, or enzyme immobilized on a particle. […] Growth (shoot and root length) was measured at two weeks."}, "soybean seedlings": {"system": "soybean seedlings", "test": "Spray of enzyme-treated dicamba solution onto soybean seedlings", "assay_type": "in vivo", "settings": "208 μM dicamba, immobilized enzyme, 30° C., soybean seedlings, one week", "procedure": "Salicylate monooxygenase (SM, SEQ ID NO: 21) and hydroxyphenylacetate monooxygenase (HPAM, SEQ ID NO: 30) were immobilized on particles. […] Aliquots (1 ml) were taken from incubated samples at 0 minutes, 10 minutes, 30 minutes, 1 hour, 5 hours, 24 hours and 30 hours after the introduction of SM and immediately frozen to stop the detoxification reaction. NADPH consumption was quantified by measuring loss of absorbance at 340 nm using a spectrophotometer. Results for SM are shown in panel A of FIG. 10 and results for HPAM are shown in panel A of FIG. 11. Consumption of NADPH is proportional to the degradation of dicamba.\nImmediately after taking the absorbance measurements, the 1 ml aliquots were mixed with a nonionic organosilicone surfactant copolymer (0.1% SILWET L77) and 200 μL of the mixture was sprayed onto 2.5-week-old soybean seedlings (six plants per treatment group, on average). The use of the surfactant ensured even distribution of the solutions on the plants. Control plants were sprayed with water+surfactant alone or dicamba+surfactant alone. After one week, the degree of herbicide damage or the degree of protection from dicamba-induced injury (in plants treated with SM) was assessed visually."}, "soybean plants": {"system": "soybean plants", "test": "Trifoliate damage scoring of soybean treated with SM1-dicamba reaction products", "assay_type": "in vivo", "settings": "V1 soybean (Morsoy Xtra), 100 μL reaction product diluted 1:24 with 0.01% SILWET L-77 on trifoliate leaves, 6 plants; Time (hours) 2; scale 0-5", "description": "These SM1-dicamba degradation products were applied to soybean seedlings (variety, Morsoy Xtra). […] The plants were scored based on trifoliate damage using the scale as described in Table 27."}, "[3]": {"procedure": "A Bacillus subtilis (A64) control reaction, which was supernatant with no SM1 enzyme was performed in parallel. The reactions were incubated at 37° C. with 400 rpm stirring for two hours. Aliquots of the reactions were collected at time 0 (T0), 1 hour, and 2 hours, and frozen at −80° C.\nHPLC column (Kinetex® 5 μm C18 100 Å, LC Column 50×4.6 mm) was equilibrated for 15 minutes with 35% acetonitrile and 65% 10 mM ammonium acetate with 0.1% formic acid in water. A volume of 10 μL of each sample was injected into Waters 2695 Separations Module with a 2996 Photodiode Array Detector. Samples were run isocratically (35% acetonitrile and 65% 10 mM ammonium acetate with 0.1% formic acid in water) for 2 minutes. […] An average of 3 measurements was run for each treatment sample.\nThe HPLC results as reported in FIG. 2 are the average of 3 sample measurements."}, "[4]": {"test": "Sorbitol dehydrogenase enzyme activity (NADH production at 340 nm)", "assay_type": "biochemical", "settings": "for enzyme activity level: NAD^+ and sorbitol, absorbance readings at 340 nm at 5 min after the start of the reaction; for regeneration of NADH (NADH production, 0-36 min): vs no enzyme control and background A64", "description": "To determine enzyme activity for sorbitol dehydrogenase in the production samples, reactions were set up with NAD^+, sorbitol and the sorbitol dehydrogenase enzyme collected in supernatant derived from the Bacillus subtilis A64 cultures. Absorbance at 340 nm was monitored with a BioTek SYNERGY HTX plate reader (BioTek Industries Inc.). […] The extinction coefficient of NADH at 340 nm (6220 M^−1 cm^−1) was used to estimate the enzyme activity of the sorbitol dehydrogenase enzyme. The enzyme activity was compared to commercially available sorbitol dehydrogenase enzyme produced from sheep liver (S-3764, Sigma-Aldrich).\nNADH production was measured and reported as an average of 7 measurements and reported over a time series (0-36 min.) for the sorbitol dehydrogenase GutB (SDH GutB), the sorbitol dehydrogenase from sheep liver (SDH control) and compared to the A64 filtrate and no enzyme treatments both used as negative controls in the enzyme assay."}},
  "data": [
    {"molecule": "Cc1cc(Cl)ccc1OCC(=O)O", "note": "[MCPA-4-Amine, 2-methyl-4-chlorophenoxyacetic acid, reference compound]", "values": [
      {"measurement": "Absorbance Maxima at Wavelength (λ) 230", "setting": "[1]", "value": 1.739},
      {"measurement": "Absorbance Maxima at Wavelength (λ) 252", "setting": "[1]", "value": 0.2573},
      {"measurement": "Absorbance Maxima at Wavelength (λ) 280", "setting": "[1]", "value": 1.506}
    ]},
    {"molecule": "Cc1cc(Cl)ccc1OC(C)C(=O)[O-].[K+]", "note": "(racemic) [Mecoprop, Potassium (RS)-2-(2-methyl-4-chlorophenoxy)propionate, reference compound]", "values": [
      {"measurement": "Absorbance Maxima at Wavelength (λ) 230", "setting": "[2]", "value": 1.723},
      {"measurement": "Absorbance Maxima at Wavelength (λ) 252", "setting": "[2]", "value": 0.2562},
      {"measurement": "Absorbance Maxima at Wavelength (λ) 280", "setting": "[2]", "value": 1.214}
    ]},
    {"molecule": "B1", "values": [
      {"measurement": "germination rate", "setting": "lentil plants; lentil seeds coated with immobilized enzyme, soil with dicamba 0.1× or […] label rate, one week, vs water and particle-alone controls", "value": "positive effect"},
      {"measurement": "shoot length", "setting": "lentil plants; two-week-old lentil, soil with dicamba 0.1× label rate (0.588 mg/L), vs water only or particle only controls (FIG. 6, FIG. 8)", "value": "longer shoot lengths"},
      {"measurement": "incubation time of enzyme with dicamba giving plants equivalent to the water control", "setting": "soybean seedlings", "value": 30, "unit": "min"}
    ]},
    {"molecule": "B2", "values": [
      {"measurement": "average trifoliate damage score", "setting": "soybean plants", "value": 2.8},
      {"measurement": "Percent Dicamba Concentration Relative to T0 control", "setting": "[3]; HPLC, Time 2 hours", "value": 84.3, "unit": "%"},
      {"measurement": "dicamba concentration (HPLC)", "setting": "[3]; dicamba 100 ppm, 250 μL SM1 enzyme, 0.5 mM NADH, HEPES pH 7.0, 1 hour of incubation (FIG. 17)", "value": "decreased concentrations"},
      {"measurement": "decrease in dicamba concentration (HPLC)", "setting": "[3]; dicamba 100 ppm, 250 μL SM1 enzyme, 0.5 mM NADH, HEPES pH 7.0, 2 hours of incubation (FIG. 17)", "value": "approximately 50%"}
    ]},
    {"molecule": "B3", "values": [
      {"measurement": "enzyme activity level", "setting": "[4]", "value": 207, "unit": "U/mL"},
      {"measurement": "regeneration of NADH (NADH production, 0-36 min)", "setting": "[4]", "value": "sufficient ability to reduce NAD to NADH"}
    ]},
    {"molecule": "B4", "values": [
      {"measurement": "enzyme activity level", "setting": "[4]", "value": 1447, "unit": "U/mL"},
      {"measurement": "regeneration of NADH (NADH production, 0-36 min)", "setting": "[4]", "value": "greater regeneration of NADH"}
    ]}
  ]
}
